Values quoted from earlier work, collected in article PMC7930624.
Several values for one entry are separate records, joined by “and”; a condition that tells them apart may be missing. Equal values may be shown once.

Target: ACE2 (Homo sapiens) (UniProt Q9BYF1)
Sequence (Q9BYF1 18-740): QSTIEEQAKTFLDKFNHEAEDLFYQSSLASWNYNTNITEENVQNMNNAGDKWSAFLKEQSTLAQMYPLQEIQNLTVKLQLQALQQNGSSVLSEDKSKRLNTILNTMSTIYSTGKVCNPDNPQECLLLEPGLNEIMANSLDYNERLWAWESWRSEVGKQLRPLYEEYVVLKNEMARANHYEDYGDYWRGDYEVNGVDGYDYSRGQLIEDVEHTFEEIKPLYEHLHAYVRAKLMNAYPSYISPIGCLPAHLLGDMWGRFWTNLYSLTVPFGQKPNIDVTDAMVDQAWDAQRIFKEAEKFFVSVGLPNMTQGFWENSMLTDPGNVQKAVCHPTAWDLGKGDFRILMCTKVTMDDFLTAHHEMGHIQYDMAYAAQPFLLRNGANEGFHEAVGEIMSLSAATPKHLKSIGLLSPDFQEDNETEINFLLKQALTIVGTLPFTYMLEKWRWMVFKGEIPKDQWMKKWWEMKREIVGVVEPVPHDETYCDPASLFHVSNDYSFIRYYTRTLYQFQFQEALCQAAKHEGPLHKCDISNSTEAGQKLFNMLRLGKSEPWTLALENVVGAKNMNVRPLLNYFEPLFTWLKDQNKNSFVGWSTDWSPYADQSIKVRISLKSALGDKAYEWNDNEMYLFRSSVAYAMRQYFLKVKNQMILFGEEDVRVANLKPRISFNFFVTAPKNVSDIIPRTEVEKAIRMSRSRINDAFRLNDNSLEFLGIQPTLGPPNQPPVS

Human defensin-5, sequence (Q01523 63-94): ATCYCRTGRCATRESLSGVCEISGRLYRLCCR

Kd: 39.3 nM and 76.2 nM
Substance: Human defensin-5 (from UniProt Q01523)
